Source: patent US20090311784A1 (WISCONSIN ALUMNI RESEARCH FOUNDATION, published 2009)
Substitutions are numbered along the chain they refer to. In names and notes the source's numbering stands.

T1: human ribonuclease inhibitor (human, UniProt P13489 2-461)
T1 construct: also called hRI; hR1
T1 sequence: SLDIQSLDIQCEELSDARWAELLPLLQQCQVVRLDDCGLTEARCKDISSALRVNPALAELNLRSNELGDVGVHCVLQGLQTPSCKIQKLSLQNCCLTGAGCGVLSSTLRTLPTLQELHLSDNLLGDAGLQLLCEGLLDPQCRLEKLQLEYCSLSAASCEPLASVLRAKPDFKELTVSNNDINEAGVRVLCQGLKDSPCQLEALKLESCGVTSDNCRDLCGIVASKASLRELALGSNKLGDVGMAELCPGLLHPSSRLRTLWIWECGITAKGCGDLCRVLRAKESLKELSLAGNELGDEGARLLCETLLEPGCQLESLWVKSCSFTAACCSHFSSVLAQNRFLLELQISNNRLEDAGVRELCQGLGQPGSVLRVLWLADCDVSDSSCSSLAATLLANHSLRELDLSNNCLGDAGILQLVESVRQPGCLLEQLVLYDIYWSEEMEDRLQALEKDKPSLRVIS

B1: fluorescein-labeled G88R RNase A (enzyme)
chain: KETAAAKFERQHMDSSTSCASSSNYCNQMMKSRNLTKDRCKPVNTFVHESLADVQAVCSQKNVACKNGQTNCYQSYSTMSITDCRETRSSKYPNCAYKTTQANKHIIVACEGNPYVPVHFDASV
modifications: fluorescein on Cys19 (F*-A19C)
notes: also called F*-A19C G88R RNase A; fluorescently-labeled G88R RNase A
B2: G38R/R39G/N67R/N88R RNase 1 (enzyme)
chain: KESRAKKFQRQHMDSDSSPSSSSTYCNQMMRRRNMTQRGCKPVNTFVHEPLVDVQNVCFQEKVTCKRGQGNCYKSNSSMHITDCRLTRGSRYPNCAYRTSPKERHIIVACEGSPYVPVHFDASVEDST
notes: Made by site-directed mutagenesis and purified like wild-type RNase 1
B3: R39D/N67D/N88A/G89D RNase 1 (enzyme)
chain: B2 chain with R38G, G39D, R67D, R88A, G89D
B4: R39D/N67D/N88A/G89D/R91D RNase 1 (enzyme)
chain: B2 chain with R38G, G39D, R67D, R88A, G89D, R91D
B5: N67D/N88A/G89D/R91D RNase 1 (enzyme)
chain: B2 chain with R38G, G39R, R67D, R88A, G89D, R91D
B6: R39D/N88A/G89D/R91D RNase 1 (enzyme)
chain: B2 chain with R38G, G39D, R67N, R88A, G89D, R91D
B7: R39L/N67L/N88A/G89L/R91L RNase 1 (enzyme)
chain: B2 chain with R38G, G39L, R67L, R88A, G89L, R91L
B8: R39D/N67D/G89D/R91D RNase 1 (enzyme)
chain: B2 chain with R38G, G39D, R67D, R88N, G89D, R91D
B9: R39D/N67D/N88A/R91D RNase 1 (enzyme)
chain: B2 chain with R38G, G39D, R67D, R88A, R91D

Tests used:
[1] = biological target: T1, human ribonuclease inhibitor; test: constant used in the fluorescence competition assay
Description: (§1) Values for Kd were obtained by nonlinear least-squares analysis of the binding isotherm using the program […] 5.5 (Red Rock Software, Salt Lake City, Utah).

[2] = biological target: T1, human ribonuclease inhibitor; test: calculated from Kd: ΔΔG = -RTln(Kd wild-type/Kd variant)
Description: as §1

[3] = biological target: T1, human ribonuclease inhibitor; test: ΔΔG of R39D/N67D/N88A/G89D/R91D RNase 1 minus ΔΔG of this variant
Description: as §1

[4] = biological target: T1, human ribonuclease inhibitor; test: fluorescence competition assay with fluorescein-labeled G88R RNase A for hRI
Description: as §1
Data points are the mean (±SE) of at least three separate measurements.

Binder | Kd [1] [nM] | ΔΔG [2] [kcal/mol] | ΔΔΔG [3] [kcal/mol] | Kd [4] [nM]
B1 | 1.4 | – | – | –
B2 | – | 3 | – | –
B3 | – | 6.7 | 2.8 | –
B4 | – | 9.5 | – | –
B5 | – | 7.3 | 2.2 | –
B6 | – | 7.6 | 1.9 | –
B7 | – | 7.1 | 2.4 | 30
B8 | – | 9.1 | 0.4 | 1000
B9 | – | 8.4 | 1.1 | –
